From patent US20200079833A1 (AstraZeneca / MedImmune, published 2020)
Starred links: 1 amine or outer side, 2 acyl side, 3 side chain; linkers in the order of their positions; H or OH if unused. Non-standard residues stand in square brackets, D forms with d. Groups on a side chain read outwards from the residue. Primed or numbered codes have the meaning given here. No end group written: not given here. *: point of attachment. Dodecylbenzoate = dodecylbenzoyl lipid group; γGlu = O=C(O)[C@H](CCC(=O)[*:2])N[*:1]; Stearoyl = CCCCCCCCCCCCCCCCCC(=O)*; αMeF = C[C@](N)(Cc1ccccc1)C(=O)O; αMeK = C[C@](N)(CCCCN)C(=O)O; Lauroyl = CCCCCCCCCCCC(=O)*; αMeS = C[C@](N)(CO)C(=O)O; PEG2′ = not defined here; Aib = CC(C)(N)C(=O)O; Ahx = NCCCCCC(=O)O

T1: GLP-1R (INS1e assay) (UniProt P32301 22-463, limits assumed)
T1 sequence (looked up): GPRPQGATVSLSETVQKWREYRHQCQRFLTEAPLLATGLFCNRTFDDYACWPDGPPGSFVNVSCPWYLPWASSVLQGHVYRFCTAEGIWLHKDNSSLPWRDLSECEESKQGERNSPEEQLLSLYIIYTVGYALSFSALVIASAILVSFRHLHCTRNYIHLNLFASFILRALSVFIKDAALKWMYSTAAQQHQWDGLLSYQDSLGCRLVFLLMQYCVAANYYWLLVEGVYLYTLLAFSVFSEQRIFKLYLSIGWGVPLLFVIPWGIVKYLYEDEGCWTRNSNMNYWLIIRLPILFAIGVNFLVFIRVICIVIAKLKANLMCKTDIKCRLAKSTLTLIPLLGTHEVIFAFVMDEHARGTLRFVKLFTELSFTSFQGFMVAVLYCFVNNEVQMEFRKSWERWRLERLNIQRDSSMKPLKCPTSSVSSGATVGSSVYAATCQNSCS


Biological target: T1, GLP-1R (INS1e assay)
Assay: cell-based or functional assay

Binder	INS1e assay EC50 GLP-1 R n1 [nM]	INS1e assay EC50 GLP-1 R n2 [nM]	INS1e assay EC50 Mean pM GLP-1R [pM]
H[Aib]EGS[αMeF]TSDV[αMeS]S[αMeF]LEGEAA[αMeK]E[αMeF]IA[αMeF]VVK([PEG2′-PEG2′-PEG2′-Stearoyl])GG-NH2 [SEQ ID NO 190]	0.0397	0.0485	44.1
H[Aib]EGS[αMeF]TSDV[αMeS]S[αMeF]LEGEAA[αMeK]E[αMeF]IA[αMeF]VVK([γGlu-γGlu-γGlu-Stearoyl])GG-NH2 (N-terminus assumed; SMILES CCCCCCCCCCCCCCCCCC(=O)N[C@@H](CCC(=O)N[C@@H](CCC(=O)N[C@@H](CCC(=O)NCCCC[C@H](NC(=O)[C@@H](NC(=O)[C@@H](NC(=O)[C@](C)(Cc1ccccc1)NC(=O)[C@H](C)NC(=O)[C@@H](NC(=O)[C@](C)(Cc1ccccc1)NC(=O)[C@H](CCC(=O)O)NC(=O)[C@](C)(CCCCN)NC(=O)[C@H](C)NC(=O)[C@H](C)NC(=O)[C@H](CCC(=O)O)NC(=O)CNC(=O)[C@H](CCC(=O)O)NC(=O)[C@H](CC(C)C)NC(=O)[C@](C)(Cc1ccccc1)NC(=O)[C@H](CO)NC(=O)[C@](C)(CO)NC(=O)[C@@H](NC(=O)[C@H](CC(=O)O)NC(=O)[C@H](CO)NC(=O)[C@@H](NC(=O)[C@](C)(Cc1ccccc1)NC(=O)[C@H](CO)NC(=O)CNC(=O)[C@H](CCC(=O)O)NC(=O)C(C)(C)NC(=O)[C@@H](N)Cc1c[nH]cn1)[C@@H](C)O)C(C)C)[C@@H](C)CC)C(C)C)C(C)C)C(=O)NCC(=O)NCC(N)=O)C(=O)O)C(=O)O)C(=O)O) [SEQ ID NO 184]	0.351	0.501	426
H[Aib]EGS[αMeF]TSDV[αMeS]S[αMeF]LEGEAA[αMeK]E[αMeF]IA[αMeF]VVK([PEG2′-PEG2′-Stearoyl])GG-NH2 [SEQ ID NO 198]	1.38	0.89	1140
H[Aib]EGS[αMeF]TSDV[αMeS]S[αMeF]LEGEAA[αMeK]E[αMeF]IA[αMeF]VVK([Ahx-Ahx-Ahx-Lauroyl])GG-NH2 (N-terminus assumed; SMILES CCCCCCCCCCCC(=O)NCCCCCC(=O)NCCCCCC(=O)NCCCCCC(=O)NCCCC[C@H](NC(=O)[C@@H](NC(=O)[C@@H](NC(=O)[C@](C)(Cc1ccccc1)NC(=O)[C@H](C)NC(=O)[C@@H](NC(=O)[C@](C)(Cc1ccccc1)NC(=O)[C@H](CCC(=O)O)NC(=O)[C@](C)(CCCCN)NC(=O)[C@H](C)NC(=O)[C@H](C)NC(=O)[C@H](CCC(=O)O)NC(=O)CNC(=O)[C@H](CCC(=O)O)NC(=O)[C@H](CC(C)C)NC(=O)[C@](C)(Cc1ccccc1)NC(=O)[C@H](CO)NC(=O)[C@](C)(CO)NC(=O)[C@@H](NC(=O)[C@H](CC(=O)O)NC(=O)[C@H](CO)NC(=O)[C@@H](NC(=O)[C@](C)(Cc1ccccc1)NC(=O)[C@H](CO)NC(=O)CNC(=O)[C@H](CCC(=O)O)NC(=O)C(C)(C)NC(=O)[C@@H](N)Cc1c[nH]cn1)[C@@H](C)O)C(C)C)[C@@H](C)CC)C(C)C)C(C)C)C(=O)NCC(=O)NCC(N)=O) [SEQ ID NO 169]	0.0931	0.269	181
H[Aib]EGS[αMeF]TSDV[αMeS]S[αMeF]LEGEAA[αMeK]E[αMeF]IA[αMeF]VVK([PEG2′-PEG2′-PEG2′-Stearoyl])GG-NH2 [SEQ ID NO 199]	0.787	2.13	1460
H[Aib]EGS[αMeF]TSDV[αMeS]S[αMeF]LEGEAA[αMeK]E[αMeF]IA[αMeF]VVK([Ahx-Ahx-Ahx-Dodecylbenzoate])GG-NH2 [SEQ ID NO 178]	0.31	0.258	284
H[Aib]EGS[αMeF]TSDV[αMeS]S[αMeF]LEGEAA[αMeK]E[αMeF]IA[αMeF]VVK([Ahx-Ahx-Dodecylbenzoate])GG-NH2 [SEQ ID NO 177]	0.266	0.755	510
H[Aib]EGS[αMeF]TSDV[αMeS]S[αMeF]LEGEAA[αMeK]E[αMeF]IA[αMeF]VVK([PEG2′-PEG2′-Dodecylbenzoate])GG-NH2 [SEQ ID NO 180]	0.0678	0.0506	59.2
H[Aib]EGS[αMeF]TSDV[αMeS]S[αMeF]LEGEAA[αMeK]E[αMeF]IA[αMeF]VVK([Ahx-Ahx-Lauroyl])GG-NH2 (N-terminus assumed; SMILES CCCCCCCCCCCC(=O)NCCCCCC(=O)NCCCCCC(=O)NCCCC[C@H](NC(=O)[C@@H](NC(=O)[C@@H](NC(=O)[C@](C)(Cc1ccccc1)NC(=O)[C@H](C)NC(=O)[C@@H](NC(=O)[C@](C)(Cc1ccccc1)NC(=O)[C@H](CCC(=O)O)NC(=O)[C@](C)(CCCCN)NC(=O)[C@H](C)NC(=O)[C@H](C)NC(=O)[C@H](CCC(=O)O)NC(=O)CNC(=O)[C@H](CCC(=O)O)NC(=O)[C@H](CC(C)C)NC(=O)[C@](C)(Cc1ccccc1)NC(=O)[C@H](CO)NC(=O)[C@](C)(CO)NC(=O)[C@@H](NC(=O)[C@H](CC(=O)O)NC(=O)[C@H](CO)NC(=O)[C@@H](NC(=O)[C@](C)(Cc1ccccc1)NC(=O)[C@H](CO)NC(=O)CNC(=O)[C@H](CCC(=O)O)NC(=O)C(C)(C)NC(=O)[C@@H](N)Cc1c[nH]cn1)[C@@H](C)O)C(C)C)[C@@H](C)CC)C(C)C)C(C)C)C(=O)NCC(=O)NCC(N)=O) [SEQ ID NO 168]	0.189	0.462	326
H[Aib]EGS[αMeF]TSDV[αMeS]S[αMeF]LEGEAA[αMeK]E[αMeF]IA[αMeF]VVK([PEG2′-Lauroyl])GG-NH2 [SEQ ID NO 170]	0.548	0.376	462
H[Aib]EGS[αMeF]TSDV[αMeS]S[αMeF]LEGEAA[αMeK]E[αMeF]IA[αMeF]VVK([PEG2′-PEG2′-Stearoyl])GG-NH2 [SEQ ID NO 189]	0.114	0.173	144
H[Aib]EGS[αMeF]TSDV[αMeS]S[αMeF]LEGEAA[αMeK]E[αMeF]IA[αMeF]VVK([PEG2′-PEG2′-PEG2′-Lauroyl])GG-NH2 [SEQ ID NO 172]	0.0396	0.028	33.8
H[Aib]EGS[αMeF]TSDV[αMeS]S[αMeF]LEGEAA[αMeK]E[αMeF]IA[αMeF]VVK([PEG2′-PEG2′-Lauroyl])GG-NH2 [SEQ ID NO 171]	0.0817	0.175	128
H[Aib]EGS[αMeF]TSDV[αMeS]S[αMeF]LEGEAA[αMeK]E[αMeF]IA[αMeF]VVK([PEG2′-Dodecylbenzoate])GG-NH2 [SEQ ID NO 179]	0.336	0.345	340
H[Aib]EGS[αMeF]TSDV[αMeS]S[αMeF]LEGEAA[αMeK]E[αMeF]IA[αMeF]VVK([PEG2′-PEG2′-PEG2′-Dodecylbenzoate])GG-NH2 [SEQ ID NO 181]	0.0453	0.114	79.7
